The source of these data is US20240025971A1 (ATRECA, published 2024).

Experiment in all cases: cell-based or functional assay
Assay [1] deals with SARS-CoV-2 Delta (B.1.617.2) full-length Spike protein (SARS-CoV-2, UniProt P0DTC2 14-1273).
Assay [2] concerns the target SARS-CoV-2 Wuhan D614G full-length Spike protein (SARS-CoV-2, UniProt P0DTC2 14-1273).
Assay [3] concerns the target SARS-CoV-2 Gamma (P.1.B.1.1.28) full-length Spike protein (SARS-CoV-2, UniProt P0DTC2 14-1273).
In assay [4] the target is SARS-CoV-2 Delta-plus (B.1.617.2.1) full-length Spike protein (SARS-CoV-2, UniProt P0DTC2 14-1273).
Assay [5] deals with SARS-CoV-2 Epsilon (B.1.427/9) full-length Spike protein (SARS-CoV-2, UniProt P0DTC2 14-1273).
The target of assay [6] is SARS-CoV-2 Alpha (B.1.1.7) full-length Spike protein (SARS-CoV-2, UniProt P0DTC2 14-1273).
In assay [7] the target is SARS-CoV-2 Beta (B.1.351) full-length Spike protein (SARS-CoV-2, UniProt P0DTC2 14-1273).

B1: AB-009271 (antibody, V domains shown)
VH: EVQLVESGGGLIQPGGSLRLSCAASGFIVSSNYMSWVRQAPGKGLEWVSVIYSGGSTYYADSVKGRFTISRDNSKNTLYLQMNSLRAEDTAVYYCARDYGDFYFDYWGQGTLVTVSS
VL: EIVMTQSPATLSVSPGERATLSCRASQSVSSNLAWYQQKPGQAPRLLIYGASTRATGIPARFSGSGSGTEFTLTISSLQSEDFAVYYCQQYYNWPRTFGQGTKVEIK
notes: human IgG1
Regarding B1, the “Pseudovirus Neutralization” value is 0.012 µg/mL in assay [1]; 0.036 µg/mL in assay [2]; more than 50 µg/mL in assay [3]; more than 50 µg/mL in assay [4]; 0.028 µg/mL in assay [5]; 0.275 µg/mL in assay [6]. Also, the “Pseudovirus Neutralization” value in assay [7] is more than 50 µg/mL.

B2: AB-009613 (antibody, V domains shown)
VH: EVQLVESGGGLIQPGGSLRLSCAASGFTVSSNYMSWVRQAPGKGLEWVSVIYSGGSTYYADSVKGRFTISRDNSKNTLYLQMNSLRAEDTAVYYCARDYGDFYFDYWGQGTLVTVSS
VL: not shown
notes: human IgG1
For B2, the “Pseudovirus Neutralization” value is 0.101 µg/mL in assay [1]; 0.83 µg/mL in assay [2]; more than 50 µg/mL in assay [3]; more than 50 µg/mL in assay [4]; 1.16 µg/mL in assay [5]; 7.23 µg/mL in assay [6]. Besides, the “Pseudovirus Neutralization” value in assay [7] was more than 50 µg/mL.

B3: AB-010020 (antibody, V domains shown)
VH: QMQLVQSGPEVKKPGTSVKVSCKASGFTFTSSAVQWVRQARGQRLEWIGWIVVGSGNTNYAQKFQERVTITRDMSTSTAYMELSSLRSEDTAVYYCAAPACSSTSCYDGFDIWGQGTMVTVSS
VL: not shown
notes: human IgG1
In the case of B3, the “Pseudovirus Neutralization” value in assay [1] is 0.003 µg/mL; in assay [2], 0.003 µg/mL; in assay [3] it was 0.0114 µg/mL; in assay [4], 0.001 µg/mL; in assay [5], 0.003 µg/mL; in assay [6], 0.013 µg/mL. In addition, the “Pseudovirus Neutralization” value in assay [7] was found to be 0.018 µg/mL.

B4: AB-010021 (antibody, V domains shown)
VH: QMQLVQSGPEVKKPGTSVKVSCKASGFTFTSSAVQWVRQARGQRLEWIGWIVVGSGNTNYAQKFQERVTITRDMSTSTAYMELSSLRSEDTAVYYCAAVYCSGGSCLDAFDIWGQGTMVTVSS
VL: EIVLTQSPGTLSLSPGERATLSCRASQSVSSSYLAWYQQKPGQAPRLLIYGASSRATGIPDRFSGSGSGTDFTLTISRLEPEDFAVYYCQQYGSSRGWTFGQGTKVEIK
notes: human IgG1; also called AB-0010021
Turning to B4, the “Pseudovirus Neutralization” value was 0.574 µg/mL in assay [1]; 0.7 µg/mL in assay [2]; 5.39 µg/mL in assay [3]; 0.078 µg/mL in assay [4]; 0.629 µg/mL in assay [5]; 2.69 µg/mL in assay [6]. In assay [7], the “Pseudovirus Neutralization” value was 8.27 µg/mL.

B5: AB-009610 (antibody, V domains shown)
VH: QVQLVQSGAEVKKPGSSVKVSCKASGGTFSNYAISWVRQAPGQGLEWMGRIIPILGIANYAQKFQGRVTITADKSTSTAYMELSSLRSEDTAVYYCATTPYYYDSSGYYLDYWGQGTLVTVSS
VL: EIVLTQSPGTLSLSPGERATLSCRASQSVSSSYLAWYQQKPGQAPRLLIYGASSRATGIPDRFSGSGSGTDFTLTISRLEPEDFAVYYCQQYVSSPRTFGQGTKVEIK
notes: human IgG1
B5: the “Pseudovirus Neutralization” value in assay [1] was more than 50 µg/mL; in assay [2], 2.21 µg/mL; in assay [3], more than 50 µg/mL; in assay [4], more than 50 µg/mL; in assay [5] it was more than 50 µg/mL; in assay [6], 2.84 µg/mL. In addition, the “Pseudovirus Neutralization” value in assay [7] was more than 50 µg/mL.
